Two molecules from article PMC7672466, “Biophysical analysis of Pseudomonas-phage PaP3 small terminase suggests a mechanism for sequence-specific DNA-binding by lateral interdigitation” can be followed below.

Data set [1] deals with T1, PaP3 ΔC122-TerS (Pseudomonas phage PaP3, UniProt Q8H9R5 1-121, del122-152).
T1 sequence: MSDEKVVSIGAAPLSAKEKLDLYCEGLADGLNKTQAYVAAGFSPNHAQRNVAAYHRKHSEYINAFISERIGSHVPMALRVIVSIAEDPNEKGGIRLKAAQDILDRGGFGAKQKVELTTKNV
The experiment in a line: EMSA; 4-16% acrylamide; stronger than WT on scr; EMSA: incubation 37 C 30 min (binding buffer not stated; proteins in GF buffer 20 mM Tris-HCl pH 7.5, 150 mM NaCl, 5 mM bME, 2.5% glycerol); 1% agarose or 4-16% acrylamide gel, 0.5x TBE, 4 C. As to conditions: protein: recombinant; tags: GST removed by PreScission protease; chain copies: 9; label: 5' Cy3; blunt.

Data set [2] concerns the target T1, PaP3 ΔC122-TerS. The experiment in a line: EMSA; 0.15 uM cos DNA on agarose, also 4-16% acrylamide; comparable to WT; EMSA: incubation 37 C 30 min (binding buffer not stated; proteins in GF buffer 20 mM Tris-HCl pH 7.5, 150 mM NaCl, 5 mM bME, 2.5% glycerol); 1% agarose or 4-16% acrylamide gel, 0.5x TBE, 4 C. As to conditions: protein: recombinant; tags: GST removed by PreScission protease; chain copies: 9; label: 5' Cy3 on both strands; blunt.

B1: Cy3-scr (dsDNA)
DNA 1: GCACTGCAGTAACTTGTCAGTCAT
DNA 2: ATGACTGACAAGTTACTGCAGTGC
With B1, in the data set with PaP3 ΔC122-TerS [1], the binding result is listed as “binds”.

B2: Cy3-cos (dsDNA)
DNA 1: GCCGGCCCCTTTCCGCGTTA
DNA 2: TAACGCGGAAAGGGGCCGGC
With B2, in the data set with PaP3 ΔC122-TerS [2], the binding result was “binds”.
